The values below come from US20190119348A1, “PARATHYROID HORMONE RECEPTOR 1 ANTAGONIST AND INVERSE AGONIST POLYPEPTIDES AND METHODS OF THEIR USE” (The General Hospital Corporation, priority 2016, published 2019).

The assay has as its target human parathyroid hormone receptor 1 (hPTHR1) (human) (UniProt Q03431). The assay can be described thus: cell-based or functional assay.

human parathyroid hormone receptor 1 (hPTHR1) (human), sequence (Q03431 27-593): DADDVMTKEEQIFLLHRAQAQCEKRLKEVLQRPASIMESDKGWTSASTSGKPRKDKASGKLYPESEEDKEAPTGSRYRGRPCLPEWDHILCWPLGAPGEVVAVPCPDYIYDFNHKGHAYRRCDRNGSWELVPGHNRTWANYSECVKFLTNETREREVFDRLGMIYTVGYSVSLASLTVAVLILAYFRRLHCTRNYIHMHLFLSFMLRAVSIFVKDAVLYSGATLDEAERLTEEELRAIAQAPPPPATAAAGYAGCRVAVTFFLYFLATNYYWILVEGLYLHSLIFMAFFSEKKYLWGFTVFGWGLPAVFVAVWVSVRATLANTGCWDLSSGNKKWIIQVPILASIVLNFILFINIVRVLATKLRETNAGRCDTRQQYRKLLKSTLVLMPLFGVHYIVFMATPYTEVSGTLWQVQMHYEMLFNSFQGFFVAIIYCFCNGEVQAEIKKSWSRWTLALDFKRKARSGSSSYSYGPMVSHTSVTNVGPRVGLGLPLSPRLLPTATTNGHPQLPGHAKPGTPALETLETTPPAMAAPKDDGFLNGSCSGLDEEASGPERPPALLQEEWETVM

“Nle8, TMR, dW12, C35-bPTH(7-35)-1977 (peptide)”: the IC50 (nanomolar value of the pIC50), antagonism of PTH(1-34)-induced cAMP response, GP-2.3 cells came out at 2.8 µM and the pIC50, antagonism of PTH(1-34)-induced cAMP response (GloSensor), GP-2.3 cells is 5.55 -log M.

As for “Nle8, TMR, dW12, W23, C37-LA-PTH(5-37)-1975 (peptide)”, the IC50 (nanomolar value of the pIC50), antagonism of PTH(1-34)-induced cAMP response, GP-2.3 cells was found to be 3.61 µM; the IC50 (nanomolar value of the pIC50), antagonism of PTH(1-34)-induced cAMP response, SGS-72 cells stood at 0.012 µM; the IC50 (nanomolar value of the pIC50), antagonism of PTHrP(1-36)-induced cAMP response, SGS-72 cells was determined as 0.01 µM; the IC50, antagonism of PTH(1-34) (0.3 nM)-induced cAMP response, SGS-72 cells stood at 20.3 nM. Further, the IC50, antagonism of PTHrP(1-36) (0.3 nM)-induced cAMP response, SGS-72 cells came out at 9.71 nM; the pIC50, antagonism of PTH(1-34) (0.3 nM)-induced cAMP response, SGS-72 cells was 7.69 -log M; the pIC50, antagonism of PTH(1-34)-induced cAMP response (GloSensor), GP-2.3 cells was 5.44 -log M; the pIC50, antagonism of PTH(1-34)-induced cAMP response, SGS-72 cells is 7.91 -log M. Moreover, the pIC50, antagonism of PTHrP(1-36) (0.3 nM)-induced cAMP response, SGS-72 cells is 8.01 -log M and the pIC50, antagonism of PTHrP(1-36)-induced cAMP response, SGS-72 cells was 8.01 -log M.

Take “Nle8, dW12, W23, C37-LA-PTH(5-37)-1974 (peptide)”: the IC50 (nanomolar value of the pIC50), antagonism of PTH(1-34)-induced cAMP response, GP-2.3 cells worked out at 0.224 µM; the IC50, antagonism of PTH(1-34) (0.3 nM)-induced cAMP response, SGS-72 cells was 4.39 nM; the pIC50, antagonism of PTH(1-34) (0.3 nM)-induced cAMP response, SGS-72 cells was 8.36 -log M; the pIC50, antagonism of PTH(1-34)-induced cAMP response (GloSensor), GP-2.3 cells was 6.65 -log M.

For the substance “Nle8, dW12, W23, Y36-LA-PTH(5-36)-1954 (peptide)”, the IC50, antagonism of PTH(1-34) (0.3 nM)-induced cAMP response, SGS-72 cells was 1.75 nM and the pIC50, antagonism of PTH(1-34) (0.3 nM)-induced cAMP response, SGS-72 cells is 8.76 -log M.

“PEG20-Nle8, TMR, dW12, W23, C37-LA-PTH(5-37)-1978 (peptide)” came in with an IC50 (nanomolar value of the pIC50), antagonism of PTH(1-34)-induced cAMP response, GP-2.3 cells of 0.642 µM; an IC50 (nanomolar value of the pIC50), antagonism of PTH(1-34)-induced cAMP response, SGS-72 cells of 0.021 µM; an IC50 (nanomolar value of the pIC50), antagonism of PTHrP(1-36)-induced cAMP response, SGS-72 cells of 0.013 µM; an IC50, antagonism of PTH(1-34) (0.3 nM)-induced cAMP response, SGS-72 cells of 24.1 nM. For the same substance, the IC50, antagonism of PTHrP(1-36) (0.3 nM)-induced cAMP response, SGS-72 cells was found to be 12.9 nM; the pIC50, antagonism of PTH(1-34) (0.3 nM)-induced cAMP response, SGS-72 cells is 7.62 -log M; the pIC50, antagonism of PTH(1-34)-induced cAMP response (GloSensor), GP-2.3 cells is 6.19 -log M; the pIC50, antagonism of PTH(1-34)-induced cAMP response, SGS-72 cells is 7.68 -log M. For the same substance, the pIC50, antagonism of PTHrP(1-36) (0.3 nM)-induced cAMP response, SGS-72 cells is 7.89 -log M and the pIC50, antagonism of PTHrP(1-36)-induced cAMP response, SGS-72 cells was 7.89 -log M.

As to “TMR-L11, dW12, W23-LA-PTH(5-36)-2004 (peptide)”, the IC50, antagonism of PTH(1-34) (0.3 nM)-induced cAMP response, SGS-72 cells came to 2.13 nM and the pIC50, antagonism of PTH(1-34) (0.3 nM)-induced cAMP response, SGS-72 cells is 8.67 -log M.

“TMR-L11, dW12, W23-LA-PTH(7-36)-2002 (peptide)”: the IC50, antagonism of PTH(1-34) (0.3 nM)-induced cAMP response, SGS-72 cells was 1.49 nM and the pIC50, antagonism of PTH(1-34) (0.3 nM)-induced cAMP response, SGS-72 cells was 8.83 -log M.

On to “TMR-Nle8, L11, dW12, W23-LA-PTH(5-36)-2000 (peptide)”, for which the IC50, antagonism of PTH(1-34) (0.3 nM)-induced cAMP response, SGS-72 cells came to 3.02 nM and the pIC50, antagonism of PTH(1-34) (0.3 nM)-induced cAMP response, SGS-72 cells is 8.52 -log M.

As for “TMR-Nle8, L11, dW12, W23-LA-PTH(7-36)-1998 (peptide)”, the IC50, antagonism of PTH(1-34) (0.3 nM)-induced cAMP response, SGS-72 cells was determined as 2.21 nM and the pIC50, antagonism of PTH(1-34) (0.3 nM)-induced cAMP response, SGS-72 cells was 8.65 -log M.

For the substance “TMR-Nle8, dW12, W23-LA-PTH(7-36)-1993 (peptide)”, the IC50, antagonism of PTH(1-34) (0.3 nM)-induced cAMP response, SGS-72 cells is 3.34 nM and the pIC50, antagonism of PTH(1-34) (0.3 nM)-induced cAMP response, SGS-72 cells is 8.48 -log M.

For “TMR-dW12, W23, C37-LA-PTH(5-37)-1976 (peptide)”, the IC50 (nanomolar value of the pIC50), antagonism of PTH(1-34)-induced cAMP response, GP-2.3 cells turned out to be 1.96 µM; the IC50, antagonism of PTH(1-34) (0.3 nM)-induced cAMP response, SGS-72 cells was 18.5 nM; the pIC50, antagonism of PTH(1-34) (0.3 nM)-induced cAMP response, SGS-72 cells was 7.73 -log M; the pIC50, antagonism of PTH(1-34)-induced cAMP response (GloSensor), GP-2.3 cells was 5.71 -log M.

Turning to “TMR-dW12, W23-LA-PTH(5-36)-1953 (peptide)”, the IC50 (nanomolar value of the pIC50), antagonism of PTH(1-34)-induced cAMP response, GP-2.3 cells amounted to 0.16 µM; the IC50, antagonism of PTH(1-34) (0.3 nM)-induced cAMP response, SGS-72 cells amounted to 3.23 nM; the pIC50, antagonism of PTH(1-34) (0.3 nM)-induced cAMP response, SGS-72 cells was 8.49 -log M; the pIC50, antagonism of PTH(1-34)-induced cAMP response (GloSensor), GP-2.3 cells was 6.8 -log M.
